{
  "source": "paper PMC10749193",
  "about": "(Frontiers in Immunology, 2023)",
  "target": "SARS-CoV-2 S2 subunit ectodomain (S2-ECD, 686–1213 aa) (SARS-CoV-2 Wuhan, UniProt P0DTC2)",
  "experiment": "ELISA",
  "conditions": "both partners purified",
  "data": [
    {"binder": "anti-S2 monoclonal antibody 4A5 (antibody, V domains shown) VH: QVKLEQSGPGILQPSQTLSLTCSFSGFSLSTSGMGVSWIRQSSGKGLEWLTHIYWDDDKRYNPSLKSRLTISKDTSRNQVFLKITSVDTADTATYYCARRRMITGLYYAMDYWGQGTSVTVSS VL: DIVMTQSTLSLPVSFGDQVSISCRSSQSLANSYGITYLSWYLHKPGQSPQLLIYGISNRFSGVPDRFSGSGSGTDFTLKISTIKPEDLGMYYCLQGTHQPWTFGGGTKLEIK", "values": [
      {"measurement": "binding result", "value": "binds"}
    ]}
  ]
}
